{
  "source": "paper PMC6231325",
  "target": "GFP_CaV2.2-HA (rabbit) (UniProt Q05152)",
  "sequence (Q05152 whole entry)": "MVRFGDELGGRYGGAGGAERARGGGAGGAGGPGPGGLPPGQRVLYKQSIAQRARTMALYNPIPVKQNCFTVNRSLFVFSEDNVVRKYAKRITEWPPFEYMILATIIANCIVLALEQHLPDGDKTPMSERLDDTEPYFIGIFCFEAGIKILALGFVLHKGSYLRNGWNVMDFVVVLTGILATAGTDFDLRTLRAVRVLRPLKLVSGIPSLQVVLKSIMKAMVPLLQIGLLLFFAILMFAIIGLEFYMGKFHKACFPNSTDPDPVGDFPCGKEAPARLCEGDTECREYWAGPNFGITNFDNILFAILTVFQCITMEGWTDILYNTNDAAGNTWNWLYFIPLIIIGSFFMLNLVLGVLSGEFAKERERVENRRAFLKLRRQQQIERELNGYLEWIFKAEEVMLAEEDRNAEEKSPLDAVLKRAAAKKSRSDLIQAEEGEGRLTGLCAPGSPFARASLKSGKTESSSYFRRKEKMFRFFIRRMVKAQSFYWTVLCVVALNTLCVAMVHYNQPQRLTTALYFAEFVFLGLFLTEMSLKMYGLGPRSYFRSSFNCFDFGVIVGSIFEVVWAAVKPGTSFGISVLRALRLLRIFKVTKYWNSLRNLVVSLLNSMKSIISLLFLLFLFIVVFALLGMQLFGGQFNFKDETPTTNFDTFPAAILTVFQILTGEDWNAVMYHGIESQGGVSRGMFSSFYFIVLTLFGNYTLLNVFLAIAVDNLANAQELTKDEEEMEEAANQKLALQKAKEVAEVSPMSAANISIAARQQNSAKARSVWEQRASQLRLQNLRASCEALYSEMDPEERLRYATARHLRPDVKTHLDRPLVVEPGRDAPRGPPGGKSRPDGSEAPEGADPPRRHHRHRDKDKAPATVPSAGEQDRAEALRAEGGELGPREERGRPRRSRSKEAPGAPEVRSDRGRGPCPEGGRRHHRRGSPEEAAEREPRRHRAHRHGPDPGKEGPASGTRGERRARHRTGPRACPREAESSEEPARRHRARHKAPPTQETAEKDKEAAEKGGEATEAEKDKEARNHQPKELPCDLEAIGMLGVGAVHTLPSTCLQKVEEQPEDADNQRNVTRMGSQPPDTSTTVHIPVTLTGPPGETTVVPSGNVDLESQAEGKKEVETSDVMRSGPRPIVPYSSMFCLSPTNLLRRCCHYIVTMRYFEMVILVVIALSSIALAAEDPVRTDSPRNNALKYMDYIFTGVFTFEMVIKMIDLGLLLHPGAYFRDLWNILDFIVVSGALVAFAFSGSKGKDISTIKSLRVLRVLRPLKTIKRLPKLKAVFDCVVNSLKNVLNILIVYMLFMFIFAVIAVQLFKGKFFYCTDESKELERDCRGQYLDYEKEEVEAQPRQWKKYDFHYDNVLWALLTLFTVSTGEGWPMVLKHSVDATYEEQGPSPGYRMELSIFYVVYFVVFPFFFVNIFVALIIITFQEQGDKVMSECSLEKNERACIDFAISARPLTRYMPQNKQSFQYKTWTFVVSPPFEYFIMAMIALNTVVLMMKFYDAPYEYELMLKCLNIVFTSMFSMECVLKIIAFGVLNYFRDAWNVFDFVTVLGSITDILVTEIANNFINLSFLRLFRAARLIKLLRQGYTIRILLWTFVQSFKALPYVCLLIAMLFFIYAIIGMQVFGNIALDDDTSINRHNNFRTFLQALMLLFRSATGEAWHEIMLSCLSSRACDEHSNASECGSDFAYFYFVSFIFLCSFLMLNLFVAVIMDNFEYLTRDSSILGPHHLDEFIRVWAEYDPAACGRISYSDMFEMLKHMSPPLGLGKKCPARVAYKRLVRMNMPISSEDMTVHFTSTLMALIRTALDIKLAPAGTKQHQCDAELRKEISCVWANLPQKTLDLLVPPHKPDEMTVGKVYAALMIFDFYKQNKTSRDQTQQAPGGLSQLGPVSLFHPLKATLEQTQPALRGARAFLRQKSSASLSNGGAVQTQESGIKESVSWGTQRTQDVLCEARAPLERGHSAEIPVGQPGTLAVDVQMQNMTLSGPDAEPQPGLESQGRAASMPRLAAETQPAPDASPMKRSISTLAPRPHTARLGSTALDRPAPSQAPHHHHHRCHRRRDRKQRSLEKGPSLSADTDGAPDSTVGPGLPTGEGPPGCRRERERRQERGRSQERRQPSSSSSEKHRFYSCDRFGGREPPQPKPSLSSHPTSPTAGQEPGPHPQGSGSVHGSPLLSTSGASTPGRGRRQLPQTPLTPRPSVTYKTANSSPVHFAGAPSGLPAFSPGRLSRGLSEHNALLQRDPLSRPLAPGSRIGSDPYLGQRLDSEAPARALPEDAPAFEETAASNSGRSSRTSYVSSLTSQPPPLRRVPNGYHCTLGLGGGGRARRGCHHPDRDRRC",
  "assay": "co-IP; competition: tsA-201 cells transfected with GFP_CaV2.2-HA, β1b, α2δ-1 and (TASK3, Cachd1 or a 1:1 mix of both) in a ratio of 2:1:2:1; IP with anti-GFP Ab, 300 mM NaCl, digitonin; α2δ-1 in IP/input normalised to no Cachd1",
  "data": [
    {"substance": "Cachd1 (natural protein)", "values": [
      {"measurement": "percent reduction of the coIP of α2δ-1 with GFP CaV2.2 (1× Cachd1)", "result": 71, "unit": "%"}
    ]}
  ]
}
